The results in this text go back to paper PMC5705180.

pKd: −log10 of the molar value.

As usually defined, the pKd is the negative decadic logarithm of the Kd, by convention in mol/L.

This assay deals with Recombinant human IGF-II R (CI-MPR), cation-independent mannose-6-phosphate receptor (human) (UniProt P11717). The experiment in a line: SPR. On the technique in general: Surface plasmon resonance follows binding to a sensor surface in real time, without labels.
As for “Bis-phosphoglycoprotein 30: bovine ribonuclease B carrying a bis-M6P-Man6GlcNAc2 glycan at Asn-34 (from UniProt P61823 27-150) (enzyme)”, the pKd was 7.54.
For “Cyclic phosphoglycopeptide 34: HIV-1 ZM109 V1V2 cyclic peptide carrying two bis-M6P-Man6GlcNAc2 glycans at N160 and N173”, the negative-log Kd (pKd) was 8.63.
“Phosphoglycoprotein 32: bovine ribonuclease B carrying the unnatural bis-M6P Man3GlcNAc2 glycan (from UniProt P61823 27-150) (enzyme)”: the pKd was 6.77.
